Test results taken from the DeepSol protein solubility set.

Test: soluble on expression in E. coli; label from the status in PepcDB or PDB records
In the case of “GPGSMLASSSLVSVKRTLRIKVGTSTSERLRAAELDEPTTSSARPPPSAMDLSYITGKMPDTLPAYQTERAVWSATTFRSAWNKLHKAYASFLETDPERAAELRAKDWQGLALYNSYAETLHLMSLLPATLRTAITQHSSFDYTEVEELFVHLGQDVEVRGSGGWVIQLPPPTTADLQYLVKHIGRFGADGRGCVANTAHRASVWRGRHGEALGVTLRVGRYVPGAARALLPLAQRGSLLILSKAGMGKTTLLRDLAAALAQEPGTPRVTVVDTSNEIGGDGPIPLPYLGRCRRIQVAQRQDQGRVMMEVIQNHTPEYLIVDEIATEEEAEAAWSISQRGVHLIGTCHGEHLEGLLQNRALNLLVGGAAQAFLSNEERRLRNKMKKTVLERPYSSPFSFVVELHARNLGHLYVDVNKAVDLVLDEQPAQLNGAVGAAVELSALLPSRVEKLLRLHDERKRKLKYVAGTGTNDAEVGEEDDETATFSSAARGTVDEDGYTLLADDGGDPESKRSIAPSTYAAPNHASGRRPHWQAEKQRRHRKTDDELYGELKGSF”, the “soluble on expression in E. coli” value is reported as “not soluble”.
With “GPGSMLLSVPEAHTEVITSLQFSPHHASVLCSTSGDDTAALWDLRNPSDSCNIARLTHHREPVNHALFIEESEPCLLTASDDRTIAYWDVREISQPVAVIRGFGDGINKMLRLPVSRRSGNACVNGGACCLIVSACDDGAVYIHDVALCGDTRRQSGMPVEGAGDTFSSTGNLVDRFMASTSTVNDLVLSPNPNLLLTASEDCAIRLWDIGPIFGGQRTQDERLVTSFDEFENPVNHIAVINSPRVTQFVQDEGQGGHSGCWLYAACSEFIFAVDLDPVSGALGEGARTLTGHQDYVRGLEFVGDDTLLTVSDDSTVIEWSLRTSNPVRQVKLHEGLVMASAVSAARDVLATGTDGGEMRVWRLPFLTE” the “soluble on expression in E. coli” value was “not soluble”.
For “GPGSMNGEFPVLVSHHKLLMLPTVGVARYDSGNAGIIGEQTHNFHVIPEIELIVVRVHGKMTEYQHNHLLLTSVLQLHAKPLHLFLTNASINIQHIFAMTITMLHAIRFCPSGSTGPCCKHRQIRPIEHNEKEHAALTYLKTIVTGWHPQQTINMIMVLFAQPQEIVVPQ”, the “soluble on expression in E. coli” value was “not soluble”.
In the case of “GPGSMNQLVVFLDIDNTLYSGEEYHSLAEQIRDGLVEYVGNWLQLTPQESEAYVVHCFEKYGLTIAGLMHEQKGFDAEAATDFLYSHCDFSHLQENPRLREMLSRLRRNHHLYFFTNASRRHATTVLQALGLSSDEFRMSGFTYEDQWAQTAPVPCNKPMRNAYIAVIKVLKKWLQDAEWVTAECMVMVDDSACNLIEPLALGLNAVWVSHGHPISDVLAEKMNTGRLFCITDIIELEDIIKQITINREN”, the “soluble on expression in E. coli” value is reported as “soluble”.
In the case of “GPGSMPAIVKQLPSSDDDNDQASLSPAKQYAQLGEESSPAGASRAELSNAEAGAEAEGLAQPQKTDASGAERVVDVEECSRLKAAGNELFKDGNISEALTLYRKALWCAPLKPVRPHHPATGESSGLPTPPNGSAPAASSHTATQRDETEVEQQPEDKTDYTLTAQVYCNAGFCLMKLDVKEEAAHMLSEAIRHDDSYLKAYIRRADCYYMMQKWSSAYGDYESYEKLGGVLDAQGCTRKAASKAKVDEEMQKMLGELKSLGNKILGNFGLSTDNFKFDKDPNTGGYSMRFER”, the “soluble on expression in E. coli” value is reported as “soluble”.
For “GPGSMPERCIGITTVQVGHIVGRGGSTLKGIQERTGATLCIVENGLQVKITADDAAKVAAAEAEVHKIVASQQNPDYEGPCGARLRKEAVELGQKRSKLFEEATRMREAGDHEGANKLVAMAKKAGEDMKARHREAALAIAKHNNEEKGKGPNYFDMHGLHLEEAMEMLKVRMSKLEEKPVGSTTAFEVIPGAGHHSAPGTQKLKRATLEYVQWKGYPCEEVNAGAFLVKVPGLGEGVLSKPEDGDKVPTKPKESATGVANKPKASGSAAASKSKAQSCCACM”, the “soluble on expression in E. coli” value was “soluble”.
For “GPGSMPKSKRATIVPLTKTRSKTREEKDELINKIRDALDDYTDVYTFELSNIRTNILQQIREERRNDSRLFLGNNKLLMIALGRDDSSSQRPNLHKLSKYLTGSCGLLFTNLPHQDVKEYFKGVSADVFARTGQVATCPLLLRTGPLAQFPHSMFDHLSRLGLPIKLDKGVIVLLRDTTVCEVGDTLTAEAAQLLKLFGIQSAEFKLELTAHWAKGVVKRMSKKKKEEEN”, the “soluble on expression in E. coli” value was “soluble”.
In the case of “GPGSMPSITQETLRRRAEFVRTGGRGSVRRTVKVAHRNTGDDKKVQQVLKRLNVSPFNDVDDAVLYRHDGTAYYFEKPKVQASMQSQCFVVSGAYDVKEASEVPS”, the “soluble on expression in E. coli” value is reported as “not soluble”.
In the case of “GPGSMPSSSLSQSSAPRQPPLGDSGECRCSTLPPKPPLAGVEEPQPSDAEDPIPFLATMSMNQVGFLHARKCTRRDLLGTSLGNCPASENVLANGASHGIEATPLPGSRSATSTSFTSPTSAPLAPMAESECDVSYLEQMLMQIMDAAKAFANTSQAPSCDTAPQSADTLPACEYLLRKCFHFDTGAFKPRQQEVCLSVLAGVNTLAVCPTGWGKSLCFQFPMLVHRLLFQCRYTRWCRQAATAPAAAQQSSETAVKEGQTGASRFAGALPSAGLPAHLFSRFCVVVSPLLALMEDQAEKINAVDHLSAFVLSAKVGADREARVLAQLESPVCPLDILFVSPEN”, the “soluble on expression in E. coli” value is reported as “not soluble”.
In the case of “GPGSMQAIITTAKSFAGDEKRPRDVKAAAAAPVLDWATMYTRRPAGTSTLFTLEAMVAKRMELLAWIDQLMNSPNVRSFSVVLDEIGARLPIERRKHVTQHAADHVVVLGRDDSPAADDADSFRTPRLSVSRSSGSAALNAFVFEGDEDLISHLLARFAFCMSEQWRKWFVKTEEALLRARLKLQMAKYETDFLPSLMRDNGLPCDPLSDEQWQDPLLQEYIVYFAVFQGKQQSRSREDYFSVPMTLATRLIKTRSVLCLKGHAILHRDQAQEVFVTVFRSKLNKGLHEAYLARMRLTSNEEDEERETVMRMLDAFLEYFVSDPTSAIQEAASGAVSAGEVRRIAQTHFPLCMRQVDEHLRREGHLKHHGRFTYGLFLKAIGLSLQDSMTLFSSLMTVKGVAGNSEAFAKTAYGYNIRHNYGMEGKKTSYSSMSCATLLALPPVVDRFDCHGCPFRFKDEGAFRSMLLKEQLNPLGKEHPPLRPSASDIEEIVQDCKGQHYTRACYKYFVATHPGVKRDTLFRSPFEYYTLSREVGERPEEILSEQTTPARRLMTGDSLKRSMFTPTLKEDVIRERKSPP”, the “soluble on expression in E. coli” value is reported as “not soluble”.
With “GPGSMQLDDWDTYRETLLYARELAVLLPSSWSELSSEQSATKSSSSLSHSSSLPSLAFVKRVEAPLLTQWMTAAAAAPVTCHCSSVGDSVEDMDYATAVVAARWTRMLGMWIVLRVELLCNTSGGVLTLAEEYEVGRYRQYFVPLAWPMLDRSIRERLAARLCALADKRRVSQPMGGTSCANDMAASSFCGTLLGKDEEDEQACDEVCTRAMEATQRVAREQLRISWDALHPSSIPATVGAKLKRLSAQQSRRHESETGSLPRPVVVHTNCLGGLLHALTSFRLRPQRQHADHGSAPLLTLTQNALLHIGYDLLTKVRSSVIERCYYLIPALLDYESCLLFCEAMLKESAALQAHEKELTRTQSILRLTLQSLLQSALGMYRHVIEALLVDYKKSACKSSASSTPRLVKVSAHLLPANPLVAQEAAQKQHASDAVVPSKPPTHPGAADGCSASAVMRLSEPAFSILVEVLEPTCDLLQRYPADWNVLWTRSLTGPDGRDQGATSGSHIAREGGLLSPSSRRQRLVSQQRQRSIAMDVRREVVSFLDAEVSNCFAAAAAGSGAASKKAQQQAAADAYLTATYLSAYGPHWL” the “soluble on expression in E. coli” value was “not soluble”.
For “GPGSMQTSQSLHTAPAEKEVEAPPQLPLTDGRCYACRRCRRILSEVQWYATGCVECSATMGVPDRDSLLDFATPHFHNFIGLIAPGQSWVARLIMKSREPTNGIFAETLSDDEPEDEENEIEPYVGDADEEEGPALLDGEDGAAEPVHELAAEAPE”, the “soluble on expression in E. coli” value was “soluble”.
In the case of “GPGSMRCVRSAAVLVKFGRSFDSTTRFGKELGFSHKMRDIPVLTGNPRPVAREEEWSCRYKLTDRMEDVVMDILKKEGWCEAEVQREMSEIFERKTQGCRSSLNTWTTVEEFQRTPWYRRYKPTDTCVAKYISYEVVKLLEEALIPPSLRGDPYAHLRKRHMEDNWMNDRFSEEAAKYIQREDLNKHTKGLPQYGQITRRKFLEFDRQFKESYGGKQHVNEAYSAWLQSIGKG”, the “soluble on expression in E. coli” value is reported as “not soluble”.
In the case of “GPGSMRSQRVLQRTRKQKMESSSCASAPIAVDAQDVVVPPAVAQARAWLSLYGACCTEEEVEMHPVVLSRVLQAVELVQSRSCLSSGSEGPLAATTTKHTCRSGEGDAEAATARSSPTALHEGDDSKRGKGEAGLSIDFGGLWMLLSEWIAILRSLVATVPLHTLSLRDTALGDAGLRCLCRQVATTSVKPASLEVASRCEACSFHLLGLSTLAAPPSCPPTIPGSWAASTLRLLDLSGAALTDGGPLASLLASCPQLHSLNLSDNSLGSRDAGLALLCAALQVHPSLEVLSLRRNCISGSRNGPAIAALAELIVARSVEGSRTLSKACGYGSALCRQQTPAAAAVAAQPLRRLDLSHNLLGTYFLLSDATMTHRAEAGRPSAAREYDMASSSGRHVGVHEAVASFPLVAALYLNNTLIELNLHNNGLPGALLEYVEAKLHVNQRTTGGGADFSKTVSTEIIASTTVRQVLIHRLRCTLDHILAGTANASGMVGATHTERGDAPPTEVPAESQSSVLSAAERRWTTGEVSELVQRLVYNVASDLSLF”, the “soluble on expression in E. coli” value is reported as “not soluble”.
With “GPGSMRYRLRLDAFAPAGSLPCCRILTQVRNLNMNRSVQTRWESDNQVASQKRTDYDFDKEQWSKQMRFASMDCVMDPDITPIKYTSVTGLKKVLRRFMTMRKLIDRRPDFKTDDLKKLFIQLKTISHSRSLEDLKVLQRLTTHGEASRISKEIKTRMNDEFAKKSWKSLKMQEVSNTYQIELDSFQLVNCYMGQMSKEDWLQITYKCEFRERKGDNEEWQSVCEYPVFEVRLGDGVQSPNTHHFIIVGIMRKDGTRYGKDAQDAASLRKQFDRSRKWF” the “soluble on expression in E. coli” value was “not soluble”.
For “GPGSMSALWARFTEKLKGSGYTLSDLVYCSEDTFLTLVANMNAFTPLQIASLAKEWQRSLSAAATPTATVSGSALPISRRHAESTRLSSSPVRSSALNRATLPATGAAETPPNHSTLSTALRKNSFVPPRRSPAKVKEEAEYLLTKLGAQSGAEYQVSLTEGIVAVEASPEAWGPLLDRVSRMHVTSHRDSAAAATPLATELQLLWKLCSPATLRKMEKACVSGAPFGLSNQDDADGLCSSAVVLYGKDATRLAAPAEELEQLFREGWGLVAFDVAVGKARTVTKEEAQDLNANLYRFSMEQCLEMLEEAGFDAFHIPSRNAVAVCHMHQLMPRFVVFVSTLEPVVVTRRLGDAVPAVGNGRPSRAPPAPAASPSPSAVAAAAAALPAARRSINGGDDVLVPASRSSRNSEDLQCAVHSKKTVEFWSPTEKRLLCSHCLYYDGYSQENCIPIEQAAREEAPRLERWVQNAITFSQEIKSVFDLFEAAQTDVSQTHKQVRSDIAHSFTRLRARLDALEANLQQQCQQKAQQNLQVLQDTLSRITATVQFVSEVVQDADEPVAAYRGGVADTNTCVALLRSAQRAFGAWEPVTISAYEDVRIVDGSALLQPVEEALKAVQSISSEAGKVQLPEAIDVNYLKSDCDV”, the “soluble on expression in E. coli” value was “not soluble”.
For “GPGSMSKLISDAIAAEDASKWNTSYELYPPRSEKAEEDMMKVLVPNFMHQSPVFLDLTWGAGGRTSGTTMRLCKDLQHAHPDTPINMHITCTNTPKGLIKETLEFAKTHGIRNILALRGDPPSGEEFQVDPDGFACARDLVRYIRDTYGDYFCVSVAGYPEGHPSRIAENGTISHEDHQKELEYLKEKVDAGASFIITQLFYDASLYVKFVKRCREVGITVPILAGLLPITTYAGFVRMVSLCKTSVPSDVKKRVEELKENPDGLKEYGVEQCVQMIECIRASGLDYHHLHFYTLNNSAQIFKILKRLNALVE”, the “soluble on expression in E. coli” value was “soluble”.
